The values below come from patent US20190233526A1.

The assay deals with human C-C motif chemokine receptor 4 (CCR4) on tumor cell lines (human) (UniProt P51679). Description: cell-based or functional assay.
Chain of UniProt P51679 (P51679 whole entry): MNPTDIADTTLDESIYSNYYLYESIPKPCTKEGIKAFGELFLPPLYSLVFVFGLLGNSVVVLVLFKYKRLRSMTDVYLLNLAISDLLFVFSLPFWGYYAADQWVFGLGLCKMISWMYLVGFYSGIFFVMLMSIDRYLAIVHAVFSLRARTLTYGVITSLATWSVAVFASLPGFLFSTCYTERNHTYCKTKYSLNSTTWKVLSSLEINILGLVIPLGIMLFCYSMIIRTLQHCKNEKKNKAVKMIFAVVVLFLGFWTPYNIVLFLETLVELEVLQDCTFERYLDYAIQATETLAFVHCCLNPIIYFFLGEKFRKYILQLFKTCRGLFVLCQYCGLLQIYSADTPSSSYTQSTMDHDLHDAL

Substance “CCR4 CAR (chimeric antigen receptor with mAb2-3 scFv, CD8 hinge and transmembrane domain, 4-1BB signaling domain and CD3 zeta signaling domain), expressed on transduced human CD3+ T cells” yielded a GM-CSF fold-induction, CAR T cells co-cultured with irradiated ATL55T cells for 24 hours of 5 fold; an IFN-gamma fold-induction, CAR T cells co-cultured with irradiated ATL55T cells for 24 hours of 2 fold; an IL-4 fold-induction, CAR T cells co-cultured with irradiated ATL55T cells for 24 hours of 9 fold; an IL-5 fold-induction, CAR T cells co-cultured with irradiated ATL55T cells for 24 hours of 4 fold. Moreover, the IL-8 fold-induction, CAR T cells co-cultured with irradiated ATL55T cells for 24 hours turned out to be 4 fold; the IL-13 fold-induction, CAR T cells co-cultured with irradiated ATL55T cells for 24 hours came to 3 fold; the MDC fold-induction, CAR T cells co-cultured with irradiated ATL55T cells for 24 hours is 2 fold; the TNF-alpha fold-induction, CAR T cells co-cultured with irradiated ATL55T cells for 24 hours was determined as 8 fold. The TNF-beta fold-induction, CAR T cells co-cultured with irradiated ATL55T cells for 24 hours amounted to 5 fold; the [3H]thymidine incorporation of CAR T cells co-cultured with irradiated CCR4-bearing target cells was more than 3 fold; the increase of MIP-1α level on co-culture with target cells stood at 36%; the increase of MP-10 (so in the source) level on co-culture with target cells was determined as 25%.
